Experimental findings from ChEMBL document CHEMBL1155708, “Isoaurostatin, a novel topoisomerase inhibitor produced by Thermomonospora alba” (J Nat Prod, 2001) are described below.

Substrate in the series: O=C1Oc2cc(O)ccc2/C1=C\c1ccc(O)cc1
As to conditions: Bos taurus.

Description: Activity at calf thymus gland topoisomerase 1 assessed as conversion of supercoiled pBR322 DNA to relaxed form by Lineweaver-Burke plot

B1: DNA topoisomerase (Bos taurus), A0JN73 (protein)
chain: MIFPAAHRALRGLPRPGTRALTRAAMEVALRGVRKILCVAEKNDAAKGIADLLSGGRMRRREGLSRFNKIYEFDYHLCGQNVTMVMTSVSGHLLAHDFRMQFRKWQSCNPLVLFEAEIEKYCPENFVDIKKTLEREAQQCQALVIWTDCDREGENIGFEVIHVCKAVKPSLQVLRARFSEITTRAVRTACENLTEPDQRVSDAVDVRQELDLRIGAAFTRFQTLRLQKIFPEVLAEQLISYGSCQFPTLGFVVERFKAIQAFVPEVFHKIRVTHDHRDGVVEFSWKRHRLFNHTACLVLYQMCMEDPRAMVVEVRSKAKSKWRPQALDTVELEKLASRKLRINAKETMRIAEKLYTQGYISYPRTETNIFPKDLDLAALVEQQTPDPRWGAFARNILERGGPTPRNGNKSDQAHPPIHPTKYTDSLQGDEQRLYELIVRHFLACCSQDAQGQETTVEIDIAQERFVAHGLMILARNYLDVYPYDRWSDKTLPVYEQGTCFQPSTVEMVDGETSPPQLLTEADLIALMEKHGIGTDATHAEHIETIKARMYVGLTPDKRFLPGHLGMGLVEGYDSMGYEMSKPDLRAELEADLKLICEGKKDKLVVLHQQVQKYKQVFIEAVAKARKLDEALSQYFGAATEVAPQDALPAVPEPIRKCPQCSRDMVLKTRKSGGFYLGCTGFPECRSAVWFPDSVLEASRDVSVCPVCQPHPVYRLKFKFKRGSLPPTMPLEFVGCIGGCDETLREILALRFSQGAARVSQPASQTSGYLQASQSLNRMDSGQQGQPRPPVTRPSKALTRTLPPPAVESESNSVTCNCGQEALLLTVRKEGPNQGRQFYKCGSGGCSFFLWADSGHPGAGPPSSASRPPGGPLEHPPGSGTLLGGSSRPGSGGSGGASCLCGQPAVTRTVQKEGPNQGRQFHTCAQPREHQCGFFQWVDENVAPGTFGGPLWPGSRRGTQGLEARSKRPRAGSSDTGSATKKPRKCSLCHQPGHTRPFCPQNR
B1: the Km turned out to be 0.0111 µM.
